Reference: article PMC7531507

How the values were obtained:
[1] = target: cynomolgus monkey GCGR (cynomolgus monkey)
[2] = target: cynomolgus monkey GLP-1R (cynomolgus monkey)
[3] = target: human glucagon receptor (GCGR) (human) (UniProt P47871)
[4] = target: mouse GCGR (mouse) (UniProt Q61606)
[5] = target: mouse GLP-1R (mouse) (UniProt O35659)
[6] = target: rat GCGR (rat) (UniProt P30082)
[7] = target: rat GLP-1R (rat) (UniProt P32301)
UniProt P32301, sequence (P32301 22-463): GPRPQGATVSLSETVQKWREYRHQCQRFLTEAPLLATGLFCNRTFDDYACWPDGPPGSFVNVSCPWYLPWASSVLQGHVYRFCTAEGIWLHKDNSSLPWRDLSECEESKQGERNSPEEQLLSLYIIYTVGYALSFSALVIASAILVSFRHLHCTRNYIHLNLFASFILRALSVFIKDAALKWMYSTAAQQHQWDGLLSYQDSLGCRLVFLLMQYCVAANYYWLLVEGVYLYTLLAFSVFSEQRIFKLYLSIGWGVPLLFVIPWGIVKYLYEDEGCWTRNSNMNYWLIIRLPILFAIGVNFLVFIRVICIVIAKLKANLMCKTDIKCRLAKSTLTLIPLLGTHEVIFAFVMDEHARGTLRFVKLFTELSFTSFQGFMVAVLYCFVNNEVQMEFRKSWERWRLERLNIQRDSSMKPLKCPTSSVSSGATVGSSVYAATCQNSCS

UniProt O35659, sequence (O35659 22-463): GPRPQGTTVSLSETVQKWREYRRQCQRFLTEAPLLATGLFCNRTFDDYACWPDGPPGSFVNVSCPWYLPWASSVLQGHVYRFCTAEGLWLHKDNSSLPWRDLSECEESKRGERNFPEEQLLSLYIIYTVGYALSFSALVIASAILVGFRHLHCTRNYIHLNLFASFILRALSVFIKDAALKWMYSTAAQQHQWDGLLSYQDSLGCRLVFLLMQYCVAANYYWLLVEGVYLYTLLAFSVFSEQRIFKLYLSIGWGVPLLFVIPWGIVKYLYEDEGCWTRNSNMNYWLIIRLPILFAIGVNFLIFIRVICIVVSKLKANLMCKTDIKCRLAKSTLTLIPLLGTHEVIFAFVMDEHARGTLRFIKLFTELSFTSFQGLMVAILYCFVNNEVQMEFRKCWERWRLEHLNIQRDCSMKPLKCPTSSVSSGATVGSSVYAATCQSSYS
UniProt P47871, sequence (P47871 26-477): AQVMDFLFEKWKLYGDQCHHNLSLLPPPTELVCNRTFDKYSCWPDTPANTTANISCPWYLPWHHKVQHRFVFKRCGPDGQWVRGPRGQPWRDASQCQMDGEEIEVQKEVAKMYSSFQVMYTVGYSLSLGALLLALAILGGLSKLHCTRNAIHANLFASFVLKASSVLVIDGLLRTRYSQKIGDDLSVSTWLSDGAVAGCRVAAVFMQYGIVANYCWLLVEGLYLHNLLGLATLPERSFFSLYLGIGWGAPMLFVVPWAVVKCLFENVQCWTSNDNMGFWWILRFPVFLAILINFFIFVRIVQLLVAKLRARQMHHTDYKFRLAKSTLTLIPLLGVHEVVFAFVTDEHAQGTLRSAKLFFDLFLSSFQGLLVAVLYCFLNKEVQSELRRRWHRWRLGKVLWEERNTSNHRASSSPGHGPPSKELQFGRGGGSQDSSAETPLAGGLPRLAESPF
UniProt P30082, sequence (P30082 27-485): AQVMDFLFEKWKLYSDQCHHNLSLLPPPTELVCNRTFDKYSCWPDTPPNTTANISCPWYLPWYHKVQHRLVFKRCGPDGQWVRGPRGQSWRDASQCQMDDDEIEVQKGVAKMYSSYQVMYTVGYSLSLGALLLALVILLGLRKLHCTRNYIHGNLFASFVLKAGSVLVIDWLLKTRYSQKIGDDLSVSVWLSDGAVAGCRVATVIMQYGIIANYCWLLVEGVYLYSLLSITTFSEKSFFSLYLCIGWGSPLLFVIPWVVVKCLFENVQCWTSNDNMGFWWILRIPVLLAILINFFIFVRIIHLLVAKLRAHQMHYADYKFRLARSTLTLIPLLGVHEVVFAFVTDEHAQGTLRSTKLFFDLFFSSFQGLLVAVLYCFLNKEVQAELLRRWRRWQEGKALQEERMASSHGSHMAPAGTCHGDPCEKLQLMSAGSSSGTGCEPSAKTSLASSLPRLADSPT
UniProt Q61606, sequence (Q61606 27-485): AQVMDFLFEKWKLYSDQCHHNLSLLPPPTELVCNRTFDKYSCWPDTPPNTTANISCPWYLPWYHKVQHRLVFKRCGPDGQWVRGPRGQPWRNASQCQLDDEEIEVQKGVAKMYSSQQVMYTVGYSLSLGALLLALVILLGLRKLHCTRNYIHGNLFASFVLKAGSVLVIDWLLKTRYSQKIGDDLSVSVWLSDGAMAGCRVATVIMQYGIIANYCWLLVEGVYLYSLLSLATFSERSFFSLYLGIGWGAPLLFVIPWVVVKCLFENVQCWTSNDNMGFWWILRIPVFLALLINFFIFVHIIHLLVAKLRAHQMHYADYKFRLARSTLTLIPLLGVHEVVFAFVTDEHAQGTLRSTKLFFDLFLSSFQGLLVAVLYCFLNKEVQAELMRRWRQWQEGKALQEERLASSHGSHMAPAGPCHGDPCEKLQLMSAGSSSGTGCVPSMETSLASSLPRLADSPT

EC50 of cAMP in clonal HEK293 cells stably expressing cynomolgus monkey GCGR [1]: 0.49 nM
EC50 of cAMP in clonal HEK293 cells stably expressing cynomolgus monkey GLP-1R [2]: 0.8 nM
EC50 of cAMP in clonal HEK293 cells stably expressing human GCGR [3]: 3.01 nM
EC50 of cAMP in clonal HEK293 cells stably expressing mouse GCGR [4]: 6.31 nM
EC50 of cAMP in clonal HEK293 cells stably expressing mouse GLP-1R [5]: 1.9 nM
EC50 of cAMP in clonal HEK293 cells stably expressing rat GCGR [6]: 12.7 nM
EC50 of cAMP in clonal HEK293 cells stably expressing rat GLP-1R [7]: 0.98 nM
Substance: native oxyntomodulin (peptide)
